These results are taken from patent US8450067B2, “Method for obtaining anti-idiotype antibodies” (Omrix Biopharmaceuticals Inc., priority 2002, dated 2013).

The target of assay [1] is synthetic cyclic peptide (9) GTTQWVL. Nature of the assay: ELISA on coated Pep 9; control IgG 1 ug/ml.
Assay [2] has as its target synthetic cyclic peptide (10) YGTPSSE. The assay can be described thus: ELISA on coated Pep 10; control IgG 5 ug/ml. Background: In an ELISA, binding on a coated surface is turned into a signal by an enzyme label.
The target in assay [3] is synthetic cyclic peptide (6) TQPPELP. The assay can be described thus: ELISA on coated Pep 6; control IgG 5 ug/ml.
In assay [4] the target is synthetic cyclic peptide (12) PLPDWRV. Nature of the assay: ELISA on coated Pep 12; control IgG 1 ug/ml.
Assay [5] addresses synthetic cyclic peptide (7) LSQPERW. Nature of the assay: ELISA on coated Pep 7; control IgG 5 ug/ml.
In assay [6] the target is synthetic cyclic peptide (6) TQPPELP. Nature of the assay: ELISA on coated Pep 6; control IgG 1 ug/ml.
The target of assay [7] is synthetic cyclic peptide (1) KHETTET. Nature of the assay: ELISA on coated Pep 1 (Table 3); control IgG 1 ug/ml.
In assay [8] the target is synthetic cyclic peptide (15) KYKRKYP. Nature of the assay: ELISA on coated Pep 15; control IgG 1 ug/ml.
For assay [9], the target named is literature peptide …. The assay can be described thus: ELISA on coated Pep 2 (Table 3); control IgG 5 ug/ml.
Assay [10] addresses literature peptide …. The assay can be described thus: ELISA on coated Pep 4 (Table 3); control IgG 5 ug/ml.
The target of assay [11] is synthetic cyclic peptide (12) PLPDWRV. Nature of the assay: ELISA on coated Pep 12; control IgG 5 ug/ml.
Assay [12] has as its target literature peptide …. Nature of the assay: ELISA on coated Pep 2 (Table 3); control IgG 1 ug/ml.
Assay [13] deals with synthetic cyclic peptide (14) PPQKHLL. Nature of the assay: ELISA on coated Pep 14; control IgG 5 ug/ml.
The target in assay [14] is synthetic cyclic peptide (4) ASTIRAG. Nature of the assay: ELISA on coated Pep 4; control IgG 5 ug/ml.
The target in assay [15] is synthetic cyclic peptide (5) VRVLLRS. The assay can be described thus: ELISA on coated Pep 5; control IgG 1 ug/ml.
In assay [16] the target is literature peptide …. The assay can be described thus: ELISA on coated Pep 3 (Table 3); control IgG 5 ug/ml.
In assay [17] the target is literature peptide …. The assay can be described thus: ELISA on coated Pep 11 (Table 3); control IgG 1 ug/ml.
Assay [18] concerns the target literature peptide …. Nature of the assay: ELISA on coated Pep 8 (Table 3); control IgG 1 ug/ml.
Assay [19] addresses synthetic cyclic peptide (13) DWLYSRS. The assay can be described thus: ELISA on coated Pep 13; control IgG 5 ug/ml.
The target in assay [20] is literature peptide …. The assay can be described thus: ELISA on coated Pep 8 (Table 3); control IgG 5 ug/ml.
The target in assay [21] is synthetic cyclic peptide (7) LSQPERW. Nature of the assay: ELISA on coated Pep 7; control IgG 1 ug/ml.
Assay [22] addresses literature peptide …. The assay can be described thus: ELISA on coated Pep 3 (Table 3); control IgG 1 ug/ml.
For assay [23], the target named is literature peptide …. Nature of the assay: ELISA on coated Pep 7 (Table 3); control IgG 5 ug/ml.
The target of assay [24] is synthetic cyclic peptide (3) AGLKNSQ. Nature of the assay: ELISA on coated Pep 3; control IgG 5 ug/ml.
The target in assay [25] is synthetic cyclic peptide (8) PPPDLHA. The assay can be described thus: ELISA on coated Pep 8; control IgG 1 ug/ml.
In assay [26] the target is synthetic cyclic peptide (1) KHETTET. The assay can be described thus: ELISA on coated Pep 1; control IgG 5 ug/ml.
Assay [27] concerns the target literature peptide …. Nature of the assay: ELISA on coated Pep 6 (Table 3); control IgG 5 ug/ml.
For assay [28], the target named is literature peptide …. Nature of the assay: ELISA on coated Pep 4 (Table 3); control IgG 1 ug/ml.
Assay [29] addresses synthetic cyclic peptide (15) KYKRKYP. Nature of the assay: ELISA on coated Pep 15; control IgG 5 ug/ml.
The target of assay [30] is literature peptide …. Nature of the assay: ELISA on coated Pep 10 (Table 3); control IgG 1 ug/ml.
The target in assay [31] is synthetic cyclic peptide (14) PPQKHLL. Nature of the assay: ELISA on coated Pep 14; control IgG 1 ug/ml.
Assay [32] deals with literature peptide …. The assay can be described thus: ELISA on coated Pep 10 (Table 3); control IgG 5 ug/ml.
In assay [33] the target is synthetic cyclic peptide (11) SLQRHPW. The assay can be described thus: ELISA on coated Pep 11; control IgG 1 ug/ml.
Assay [34] deals with synthetic cyclic peptide (1) KHETTET. Nature of the assay: ELISA on coated Pep 1; control IgG 1 ug/ml.
Assay [35] has as its target synthetic cyclic peptide (3) AGLKNSQ. Nature of the assay: ELISA on coated Pep 3; control IgG 1 ug/ml.
In assay [36] the target is synthetic cyclic peptide (4) ASTIRAG. The assay can be described thus: ELISA on coated Pep 4; control IgG 1 ug/ml.
The target in assay [37] is literature peptide …. The assay can be described thus: ELISA on coated Pep 5 (Table 3); control IgG 1 ug/ml.
Assay [38] deals with literature peptide …. Nature of the assay: ELISA on coated Pep 9 (Table 3); control IgG 1 ug/ml.
The target of assay [39] is literature peptide …. Nature of the assay: ELISA on coated Pep 6 (Table 3); control IgG 1 ug/ml.
Assay [40] deals with literature peptide …. The assay can be described thus: ELISA on coated Pep 9 (Table 3); control IgG 5 ug/ml.
For assay [41], the target named is synthetic cyclic peptide (1) KHETTET. Nature of the assay: ELISA on coated Pep 1 (Table 3); control IgG 5 ug/ml.
The target of assay [42] is synthetic cyclic peptide (2) PPNHSHL. The assay can be described thus: ELISA on coated Pep 2; control IgG 5 ug/ml.
The target of assay [43] is synthetic cyclic peptide (13) DWLYSRS. Nature of the assay: ELISA on coated Pep 13; control IgG 1 ug/ml.
The target of assay [44] is synthetic cyclic peptide (2) PPNHSHL. The assay can be described thus: ELISA on coated Pep 2; control IgG 1 ug/ml.
Assay [45] deals with synthetic cyclic peptide (11) SLQRHPW. Nature of the assay: ELISA on coated Pep 11; control IgG 5 ug/ml.
In assay [46] the target is synthetic cyclic peptide (10) YGTPSSE. Nature of the assay: ELISA on coated Pep 10; control IgG 1 ug/ml.
The target of assay [47] is literature peptide …. The assay can be described thus: ELISA on coated Pep 11 (Table 3); control IgG 5 ug/ml.
The target of assay [48] is literature peptide …. Nature of the assay: ELISA on coated Pep 5 (Table 3); control IgG 5 ug/ml.
In assay [49] the target is synthetic cyclic peptide (9) GTTQWVL. Nature of the assay: ELISA on coated Pep 9; control IgG 5 ug/ml.
For assay [50], the target named is synthetic cyclic peptide (8) PPPDLHA. Nature of the assay: ELISA on coated Pep 8; control IgG 5 ug/ml.
Assay [51] concerns the target synthetic cyclic peptide (5) VRVLLRS. The assay can be described thus: ELISA on coated Pep 5; control IgG 5 ug/ml.
Assay [52] deals with literature peptide …. The assay can be described thus: ELISA on coated Pep 7 (Table 3); control IgG 1 ug/ml.
Assay [53] deals with anti-dsDNA antibody-positive SLE sera. Particulars: sera which cross react with ssDNA; cited from earlier work.
For assay [54], the system named is mice. Particulars: cited from earlier work.
Assay [55] deals with BALB/c neonatal mice. Particulars: BALB/c neonatal mice immunized later with pCDR1 or the pathogenic auto-Ab; cited from earlier work.
In assay [56] the test system is immunoglobulin elution peak from a peptide column bound with peptide 707. Nature of the assay: ELISA of peptide column eluate with biotinylated peptides (707 column). The assay is classed as binding, human. Particulars: FIG. 4; biotinylated peptide 1 μg/ml. As to the method:
(§1) To measure the binding efficacy of peptide column eluates (706 and 707) the following ELISA was performed:
(§2) Microtiter plates (Costar, USA) were coated overnight at 2-8° C. with 10 μg/ml NeutrAvidin (Pierce, USA) suspended in 0.1M, pH 8.8, of carbonate-bicarbonate buffer (Sigma USA). The coating solution was removed, washed three times with washing buffer (1×PBS) and 200 μl of blocking solution (freshly prepared 1% I Block, Tropix, USA) per well was added and incubated for 1 hour at 37° C. Coated and blocked plates can be stored at −20° C. for a month before use.
(§3) Tested samples diluted in the blocking solution were mixed in a separate tube with 1 μg/ml (final concentration) of the appropriate biotinylated peptide and the mixture was incubated for 1 hour at 37° C. 100 μl from each reaction tube was then transferred to the blocked microtiter plate and incubated at 37° C. for ½ hour. A 100 μl of 1:5000 Alkaline Phosphatase conjugate goat anti human IgG (Heavy and light chain from Jackson, USA) diluted in the blocking buffer was applied into the microtiter well and incubated for 1 hour. […] The measurement was done photometrically at 405 nm.

In assay [57] the test system is immunoglobulin eluted from a peptide column bearing the peptide 706. The assay can be described thus: ELISA of peptide column eluate with biotinylated peptides (706 column). The assay is classed as binding, human. Particulars: FIG. 3; biotinylated peptide 1 μg/ml. As to the method: as §1, §2, §3

As for “IgG purified from one donor (negative control) (antibody)”, the OD at 405 nm in assay [1] was determined as 0.045 OD; in assay [2], 0.048 OD; in [3], 0.009 OD; in assay [4] it was 0.043 OD; in assay [5] it was 0.048 OD; in assay [6], 0.007 OD. Moreover, the OD at 405 nm was found to be 0.044 OD in assay [7]; 0.037 OD in assay [8]; 0.041 OD in assay [9]; 0.039 OD in [10]; 0.045 OD in assay [11]; 0.04 OD in assay [12]. The OD at 405 nm in assay [13] was 0.083 OD; in assay [14], 0.011 OD; in assay [15], 0.009 OD; in [16], 0.043 OD; in [17] it was 0.043 OD; in assay [18], 0.044 OD. Besides, the OD at 405 nm in assay [19] stood at 0.078 OD; in [20], 0.041 OD; in assay [21] it was 0.045 OD; in [22] it was 0.043 OD; in [23] it was 0.052 OD; in assay [24], 0.011 OD. The OD at 405 nm came to 0.043 OD in [25]; 0.016 OD in assay [26]; 0.043 OD in [27]; 0.04 OD in [28]; 0.068 OD in assay [29]; 0.042 OD in assay [30]. Also, the OD at 405 nm in [31] amounted to 0.079 OD; in assay [32], 0.041 OD; in [33], 0.068 OD; in assay [34], 0.013 OD; in assay [35], 0.011 OD; in assay [36], 0.013 OD. For the same substance, the OD at 405 nm stood at 0.043 OD in assay [37]; 0.044 OD in [38]; 0.046 OD in assay [39]; 0.045 OD in [40]; 0.043 OD in assay [41]; 0.009 OD in assay [42]. The OD at 405 nm worked out at 0.069 OD in assay [43]; 0.009 OD in assay [44]; 0.068 OD in assay [45]; 0.06 OD in assay [46]; 0.041 OD in [47]; 0.048 OD in assay [48]. The OD at 405 nm is 0.044 OD in [49], 0.046 OD in assay [50], 0.008 OD in assay [51] and 0.043 OD in [52].
Consider “RLTSSLRYNP [synthetic peptide mimotope of dsDNA (Sun et al. 2001)]”, for which the “share of anti-dsDNA antibody-positive SLE sera that recognize the peptide” value in assay [53] is reported as 88%.
Consider TGYYMQWVKQSPEKSLEWIG [Pep 706], for which the “effect on disease in experimental SLE mice” value in assay [54] (experimental SLE mice) is “ameliorate the disease”. For the same substance, the “induction of SLE-like disease in mice” value in assay [54] (responder mice (BALB/c, SJL)) is given as “induced a mild SLE-like disease”. For the same substance, the auto-Ab production result in assay [55] was “prevent auto-Ab production”. The “binding of 707 column eluate to biotinylated peptide” value in [56] is given as “reacted”. Moreover, in assay [57], the “binding of 706 column eluate to biotinylated peptide” value is recorded as “reacted specifically in a linear fashion”.
